Reference: patent US20130096281A1

Molecular target: [Ag] (UniProt P04626)
Experiment: yeast display titration (flow cytometry); Lip2prepro leader, Sag1p fusion

Question: preproA1-Herceptin scFv was tested. Which Kd did it give?
Answer: 2.51 nM
